Source: PMC2176068, “Hepatoma derived growth factor binds DNA through the N-terminal PWWP domain”

How the values were obtained:
GST-HDGF [1] = molecular target: T1, GST-HDGF (Homo sapiens, UniProt P51858 1-240); assay: EMSA; 10 mM Tris pH 7.5, 50 mM KCl, 1 mM DTT, 5% glycerol, 0.05% NP-40, 0.1 ug sheared salmon sperm DNA; 1 ug protein, 0.25 pmol probe, 30 min on ice; 5% PAGE in 0.1x TBE; conditions: protein: recombinant, tags: N-terminal GST (pGEX-4T2), blunt
GST-HDGF [2] = molecular target: T1, GST-HDGF; assay: competition; 100x unlabeled, labeled 80 bp probe; 10 mM Tris pH 7.5, 50 mM KCl, 1 mM DTT, 5% glycerol, 0.05% NP-40, 0.1 ug sheared salmon sperm DNA; 1 ug protein, 0.25 pmol probe, 30 min on ice; 5% PAGE in 0.1x TBE; conditions: protein: recombinant, tags: N-terminal GST (pGEX-4T2)
GST-HDGF Δ1-146 = GST-HDGF Δ1-146 (Homo sapiens, UniProt P51858 1-146); assay: EMSA; 10 mM Tris pH 7.5, 50 mM KCl, 1 mM DTT, 5% glycerol, 0.05% NP-40, 0.1 ug sheared salmon sperm DNA; 1 ug protein, 0.25 pmol probe, 30 min on ice; 5% PAGE in 0.1x TBE; conditions: protein: recombinant; tags: N-terminal GST; label: 5' biotin (sense strand); blunt
GST-HDGF Δ1-110 = GST-HDGF Δ1-110 (Homo sapiens, UniProt P51858 1-110); assay: as above; conditions: protein: recombinant; tags: N-terminal GST; label: 5' biotin (sense strand); blunt
GST-HDGF Δ70-237 = GST-HDGF Δ70-237 (Homo sapiens, UniProt P51858 70-237); assay: as above; conditions: protein: recombinant; tags: N-terminal GST; label: 5' biotin (sense strand); blunt
TNT-HDGF (untagged) = TNT-HDGF (untagged) (UniProt P51858 1-240); assay: as above; conditions: protein: ivt; tags: none; label: 5' biotin (sense strand); blunt
GST-HDGF Δ1-140 = GST-HDGF Δ1-140 (Homo sapiens, UniProt P51858 1-140); assay: as above; conditions: protein: recombinant; tags: N-terminal GST; label: 5' biotin (sense strand); blunt
His-HDGF-GFP = His-HDGF-GFP (UniProt P51858 1-240); assay: as above; conditions: protein: recombinant; tags: His, GFP; label: 5' biotin (sense strand); blunt
His-HDGF-GFP, sequence (P51858 whole entry): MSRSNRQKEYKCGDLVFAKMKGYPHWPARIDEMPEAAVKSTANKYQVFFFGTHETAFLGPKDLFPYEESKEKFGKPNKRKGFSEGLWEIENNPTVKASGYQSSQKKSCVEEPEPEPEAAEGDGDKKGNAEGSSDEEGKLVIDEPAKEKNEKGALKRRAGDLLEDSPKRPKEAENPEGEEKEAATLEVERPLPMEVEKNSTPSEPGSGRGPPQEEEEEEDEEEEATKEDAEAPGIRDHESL

T1 sequence (P51858 whole entry): as above
GST-HDGF Δ1-146, sequence (P51858 1-146, stated change not applied): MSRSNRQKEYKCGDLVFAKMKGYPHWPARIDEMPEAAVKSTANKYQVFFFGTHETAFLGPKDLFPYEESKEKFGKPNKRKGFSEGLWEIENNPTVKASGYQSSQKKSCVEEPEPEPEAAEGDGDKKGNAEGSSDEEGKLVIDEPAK
GST-HDGF Δ1-110, sequence (P51858 1-110, stated change not applied): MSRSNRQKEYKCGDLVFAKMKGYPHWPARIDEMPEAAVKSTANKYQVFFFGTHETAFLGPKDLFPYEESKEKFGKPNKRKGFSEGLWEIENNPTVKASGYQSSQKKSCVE
GST-HDGF Δ70-237, sequence (P51858 70-237, stated change not applied): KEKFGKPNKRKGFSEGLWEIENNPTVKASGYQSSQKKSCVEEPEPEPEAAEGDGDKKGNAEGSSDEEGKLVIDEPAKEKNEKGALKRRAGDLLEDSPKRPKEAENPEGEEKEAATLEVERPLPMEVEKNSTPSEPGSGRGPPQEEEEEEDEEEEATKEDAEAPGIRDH
GST-HDGF Δ1-140, sequence (P51858 1-140, stated change not applied): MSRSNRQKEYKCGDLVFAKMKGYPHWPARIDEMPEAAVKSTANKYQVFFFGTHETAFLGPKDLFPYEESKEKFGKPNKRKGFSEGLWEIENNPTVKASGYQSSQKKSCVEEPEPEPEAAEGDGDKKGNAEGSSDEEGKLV
TNT-HDGF (untagged), sequence (P51858 whole entry): as the sequence (P51858 whole entry) above

B1: 37 bp minimal probe (dsDNA)
DNA 1: CTTGAACTCCTGACCTCAGATGATCCATGTGCCTCGG
DNA 2: CCGAGGCACATGGATCATCTGAGGTCAGGAGTTCAAG
B1: binds (GST-HDGF [1]; label: 5' biotin).

B2: non-specific competitor (dsDNA)
DNA 1: TGCTGTTGACAGTGAGCGCGGCCAGCTTATAGTCATATATTAGTGAAGCCACAGATGTAATATATGACTATAAGCTGGCCTTGCCTACTGCCTCGGA
DNA 2: TCCGAGGCAGTAGGCAAGGCCAGCTTATAGTCATATATTACATCTGTGGCTTCACTAATATATGACTATAAGCTGGCCGCGCTCACTGTCAACAGCA
B2: no binding (GST-HDGF [2]).

B3: SMYD1 promoter 80 bp probe (dsDNA)
DNA 1: CAGGCTGGTCTTGAACTCCTGACCTCAGATGATCCATGTGCCTCGGCCTCCCAAGGTGGGGATTACAGGCGTGAGCCACC
DNA 2: GGTGGCTCACGCCTGTAATCCCCACCTTGGGAGGCCGAGGCACATGGATCATCTGAGGTCAGGAGTTCAAGACCAGCCTG
B3: binds (GST-HDGF Δ1-146); binds (GST-HDGF Δ1-110); binds (GST-HDGF [1]; label: 5' biotin (sense strand)). B3: no binding (GST-HDGF Δ70-237); binds (TNT-HDGF (untagged)); binds (GST-HDGF Δ1-140). B3: binds (His-HDGF-GFP).

B4: 80 bp specific competitor (unlabeled) (dsDNA)
DNA 1: CAGGCTGGTCTTGAACTCCTGACCTCAGATGATCCATGTGCCTCGGCCTCCCAAGGTGGGGATTACAGGCGTGAGCCACC
DNA 2: GGTGGCTCACGCCTGTAATCCCCACCTTGGGAGGCCGAGGCACATGGATCATCTGAGGTCAGGAGTTCAAGACCAGCCTG
B4: binds (GST-HDGF [2]; blunt).
